{
  "source": "patent US20140357845A1",
  "key": {"[1]": {"biological_target": "s-H1 Full-length R343Q (A/Brisbane/59/2007), monomeric form (influenza A virus H1N1), B4URD6", "conditions": "remark: other sources report otherwise"}, "[2]": {"biological_target": "s-H1 Full-length R343Q (A/Brisbane/59/2007), trimeric form (influenza A virus H1N1), B4URD6", "conditions": "remark: other sources report otherwise"}},
  "data": [
    {"binder": "CR6261 (antibody, V domains shown) VH: EVQLVESGAEVKKPGSSVKVSCKASGGPFRSYAISWVRQAPGQGPEWMGGIIPIFGTTKYAPKFQGRVTITADDFAGTVYMELSSLRSEDTAMYYCAKHMGYQVRETMDVWGKGTTVTVSS VL: QSVLTQPPSVSAAPGQKVTISCSGSSSNIGNDYVSWYQQLPGTAPKLLIYDNNKRPSGIPDRFSGSKSGTSATLGITGLQTGDEANYYCATWDRRPTAYVVFGGGTKLTVLG", "values": [
      {"measurement": "BLI response", "setting": "[1]", "result": 0.9, "unit": "nm"},
      {"measurement": "BLI response", "setting": "[2]", "result": 1.3, "unit": "nm"}
    ]}
  ]
}
